Where “and” joins values, the source holds several entries; their conditions need not be identical. Identical values can stand only once. Values belong to the substance of their own block, whether it stands above or below them.
Experiments:
[1] = molecular target: 43S pre-initiation complex (40S, eIF1, eIF1A, ternary complex; no mRNA) (S. cerevisiae) (UniProt P32911); assay: native gel or EMSA; gel shift monitoring [35S]-Met-tRNAi; 43S PICs without mRNA (1 µM eIF1, 1 µM eIF1A, 200 nM eIF2, 1 mM GDPNP•Mg2+, 2 nM Met-tRNAi, 30 nM 40S); eIF3 titrated 30-500 nM; 1X Recon buffer (30 mM HEPES-KOH pH 7.4, 100 mM KOAc, 3 mM Mg(OAc)2, 2 mM DTT), 26 °C, 2 h; apparent KD, Hill equation; single experiments; apparent affinities ≤ 30 nM likely upper limits
[2] = molecular target: 48S pre-initiation complex (40S, eIF1, eIF1A, ternary complex, AUG-containing model mRNA) (S. cerevisiae) (UniProt P32911); assay: native gel or EMSA; gel shift monitoring [35S]-Met-tRNAi; 48S PICs with 1 µM uncapped AUG-containing model mRNA (1 µM eIF1, 1 µM eIF1A, 200 nM eIF2, 1 mM GDPNP•Mg2+, 2 nM Met-tRNAi, 20 nM 40S); eIF3 titrated 30-500 nM; 1X Recon buffer, 26 °C, 2 h; apparent KD, Hill equation; single experiments; apparent affinities ≤ 30 nM likely upper limits
[3] = molecular target: 48S pre-initiation complex (40S, eIF1, eIF1A, ternary complex, AUG-containing model mRNA) (S. cerevisiae) (UniProt P32911); assay: other; 48S PIC, + mRNA
[4] = molecular target: 43S pre-initiation complex (40S ribosomal subunit, eIF1, eIF1A and eIF2•GDPNP•Met-tRNAi ternary complex); called 48S PIC when AUG-containing model mRNA is added (yeast) (UniProt P32911); assay: other; 43S PIC, no mRNA
[5] = molecular target: 43S pre-initiation complex (40S ribosomal subunit, eIF1, eIF1A and eIF2•GDPNP•Met-tRNAi ternary complex); called 48S PIC when AUG-containing model mRNA is added (yeast) (UniProt P32911); assay: native gel or EMSA; eIF3 (30-500 nM) titrated into 48S PICs: 1 µM uncapped AUG-containing model mRNA, 20 nM 40S, 1 µM eIF1, 1 µM eIF1A, 200 nM eIF2, 1 mM GDPNP•Mg2+, 2 nM [35S]-Met-tRNAi; 26 °C, 2 h; apparent KD from a Hill fit
[6] = molecular target: 43S pre-initiation complex (40S ribosomal subunit, eIF1, eIF1A and eIF2•GDPNP•Met-tRNAi ternary complex); called 48S PIC when AUG-containing model mRNA is added (yeast) (UniProt P32911); assay: native gel or EMSA; eIF3 (30-500 nM) titrated into 43S PICs without mRNA: 30 nM 40S, 1 µM eIF1, 1 µM eIF1A, 200 nM eIF2, 1 mM GDPNP•Mg2+, 2 nM [35S]-Met-tRNAi; 1X Recon buffer (30 mM HEPES-KOH pH 7.4, 100 mM KOAc pH 7.6, 3 mM Mg(OAc)2, 2 mM DTT); 26 °C, 2 h; apparent KD from a Hill fit, free eIF3 corrected for free …
[7] = tested on: yeast 43S PIC: 40S+eIF1+eIF1A+eIF2 (Met-tRNAi TC); for mRNA recruitment also eIF5, eIF4A, eIF4B, eIF4E-eIF4G;eIF3 (b prt1-1) (Saccharomyces cerevisiae;Saccharomyces cerevisiae); assay: EMSA; details: 30 mM HEPES-KOH pH 7.4, 100 mM KOAc, 3 mM Mg(OAc)2, 2 mM DTT, 1 mM GDPNP, 26 C, 2 h, native 4% THEM gel
[8] = tested on: yeast 43S PIC: 40S+eIF1+eIF1A+eIF2 (Met-tRNAi TC); for mRNA recruitment also eIF5, eIF4A, eIF4B, eIF4E-eIF4G;eIF3 (b rnp1) (Saccharomyces cerevisiae;Saccharomyces cerevisiae); assay: EMSA; details: 30 mM HEPES-KOH pH 7.4, 100 mM KOAc, 3 mM Mg(OAc)2, 2 mM DTT, 1 mM GDPNP, 26 C, 2 h, native 4% THEM gel
[9] = tested on: yeast 43S PIC: 40S+eIF1+eIF1A+eIF2 (Met-tRNAi TC); for mRNA recruitment also eIF5, eIF4A, eIF4B, eIF4E-eIF4G;eIF3 a/b/c sub-complex (Saccharomyces cerevisiae;Saccharomyces cerevisiae); assay: EMSA; details: 30 mM HEPES-KOH pH 7.4, 100 mM KOAc, 3 mM Mg(OAc)2, 2 mM DTT, 1 mM GDPNP, 26 C, 2 h, native 4% THEM gel
[10] = tested on: yeast 43S PIC: 40S+eIF1+eIF1A+eIF2 (Met-tRNAi TC); for mRNA recruitment also eIF5, eIF4A, eIF4B, eIF4E-eIF4G (Saccharomyces cerevisiae); assay: EMSA; details: no eIF3; measurement 1; m7G cap; 30 mM HEPES-KOH pH 7.4, 100 mM KOAc, 3 mM Mg(OAc)2, 2 mM DTT, 1 mM GDPNP, 26 C, 2 h; native 4% THEM gel
[11] = tested on: yeast 43S PIC: 40S+eIF1+eIF1A+eIF2 (Met-tRNAi TC); for mRNA recruitment also eIF5, eIF4A, eIF4B, eIF4E-eIF4G;eIF3 (a Box37) (Saccharomyces cerevisiae;Saccharomyces cerevisiae); assay: EMSA; details: measurement 1; m7G cap; 30 mM HEPES-KOH pH 7.4, 100 mM KOAc, 3 mM Mg(OAc)2, 2 mM DTT, 1 mM GDPNP, 26 C, 2 h; native 4% THEM gel
[12] = tested on: yeast 43S PIC: 40S+eIF1+eIF1A+eIF2 (Met-tRNAi TC); for mRNA recruitment also eIF5, eIF4A, eIF4B, eIF4E-eIF4G;eIF3 (a Box6) (Saccharomyces cerevisiae;Saccharomyces cerevisiae); assay: EMSA; details: measurement 1; m7G cap; 30 mM HEPES-KOH pH 7.4, 100 mM KOAc, 3 mM Mg(OAc)2, 2 mM DTT, 1 mM GDPNP, 26 C, 2 h; native 4% THEM gel
[13] = tested on: yeast 43S PIC: 40S+eIF1+eIF1A+eIF2 (Met-tRNAi TC); for mRNA recruitment also eIF5, eIF4A, eIF4B, eIF4E-eIF4G;eIF3 (a H725P) (Saccharomyces cerevisiae;Saccharomyces cerevisiae); assay: EMSA; details: measurement 1; m7G cap; 30 mM HEPES-KOH pH 7.4, 100 mM KOAc, 3 mM Mg(OAc)2, 2 mM DTT, 1 mM GDPNP, 26 C, 2 h; native 4% THEM gel
[14] = tested on: yeast 43S PIC: 40S+eIF1+eIF1A+eIF2 (Met-tRNAi TC); for mRNA recruitment also eIF5, eIF4A, eIF4B, eIF4E-eIF4G;eIF3 (a R731I) (Saccharomyces cerevisiae;Saccharomyces cerevisiae); assay: EMSA; details: measurement 1; m7G cap; 30 mM HEPES-KOH pH 7.4, 100 mM KOAc, 3 mM Mg(OAc)2, 2 mM DTT, 1 mM GDPNP, 26 C, 2 h; native 4% THEM gel
[15] = tested on: yeast 43S PIC: 40S+eIF1+eIF1A+eIF2 (Met-tRNAi TC); for mRNA recruitment also eIF5, eIF4A, eIF4B, eIF4E-eIF4G;eIF3 (a delta8) (Saccharomyces cerevisiae;Saccharomyces cerevisiae); assay: EMSA; details: measurement 1; m7G cap; 30 mM HEPES-KOH pH 7.4, 100 mM KOAc, 3 mM Mg(OAc)2, 2 mM DTT, 1 mM GDPNP, 26 C, 2 h; native 4% THEM gel
[16] = tested on: yeast 43S PIC: 40S+eIF1+eIF1A+eIF2 (Met-tRNAi TC); for mRNA recruitment also eIF5, eIF4A, eIF4B, eIF4E-eIF4G;eIF3 (c Box12-SPW) (Saccharomyces cerevisiae;Saccharomyces cerevisiae); assay: EMSA; details: measurement 1; m7G cap; 30 mM HEPES-KOH pH 7.4, 100 mM KOAc, 3 mM Mg(OAc)2, 2 mM DTT, 1 mM GDPNP, 26 C, 2 h; native 4% THEM gel
[17] = tested on: yeast 43S PIC: 40S+eIF1+eIF1A+eIF2 (Met-tRNAi TC); for mRNA recruitment also eIF5, eIF4A, eIF4B, eIF4E-eIF4G;eIF3 (c GAP85) (Saccharomyces cerevisiae;Saccharomyces cerevisiae); assay: EMSA; details: measurement 1; m7G cap; 30 mM HEPES-KOH pH 7.4, 100 mM KOAc, 3 mM Mg(OAc)2, 2 mM DTT, 1 mM GDPNP, 26 C, 2 h; native 4% THEM gel
[18] = tested on: yeast 43S PIC: 40S+eIF1+eIF1A+eIF2 (Met-tRNAi TC); for mRNA recruitment also eIF5, eIF4A, eIF4B, eIF4E-eIF4G;eIF3 (c delta60) (Saccharomyces cerevisiae;Saccharomyces cerevisiae); assay: EMSA; details: measurement 1; m7G cap; 30 mM HEPES-KOH pH 7.4, 100 mM KOAc, 3 mM Mg(OAc)2, 2 mM DTT, 1 mM GDPNP, 26 C, 2 h; native 4% THEM gel
[19] = tested on: yeast 43S PIC: 40S+eIF1+eIF1A+eIF2 (Met-tRNAi TC); for mRNA recruitment also eIF5, eIF4A, eIF4B, eIF4E-eIF4G;eIF3 (g KLF) (Saccharomyces cerevisiae;Saccharomyces cerevisiae); assay: EMSA; details: measurement 1; m7G cap; 30 mM HEPES-KOH pH 7.4, 100 mM KOAc, 3 mM Mg(OAc)2, 2 mM DTT, 1 mM GDPNP, 26 C, 2 h; native 4% THEM gel
[20] = tested on: yeast 43S PIC: 40S+eIF1+eIF1A+eIF2 (Met-tRNAi TC); for mRNA recruitment also eIF5, eIF4A, eIF4B, eIF4E-eIF4G;eIF3 (i Q258R) (Saccharomyces cerevisiae;Saccharomyces cerevisiae); assay: EMSA; details: measurement 1; m7G cap; 30 mM HEPES-KOH pH 7.4, 100 mM KOAc, 3 mM Mg(OAc)2, 2 mM DTT, 1 mM GDPNP, 26 C, 2 h; native 4% THEM gel
[21] = tested on: yeast 43S PIC: 40S+eIF1+eIF1A+eIF2 (Met-tRNAi TC); for mRNA recruitment also eIF5, eIF4A, eIF4B, eIF4E-eIF4G;eIF3 WT (a/b/c/i/g) (Saccharomyces cerevisiae;Saccharomyces cerevisiae); assay: EMSA; details: measurement 1; m7G cap; 30 mM HEPES-KOH pH 7.4, 100 mM KOAc, 3 mM Mg(OAc)2, 2 mM DTT, 1 mM GDPNP, 26 C, 2 h; native 4% THEM gel
[22] = no mRNA, ~3 fold weaker than WT, mean of 2, column assigned from text, Met-charged

Substance: eIF3a/b/c sub-complex lacking the i and g subunits (eIF3 purified from eIF3i DDKK cells) (from UniProt P38249 1-964; P06103 1-763; P32497 1-812)
Kd [3]: 109 nM
Kd [4]: 90 nM
fold decrease of apparent affinity against WT eIF3 [5]: 3 fold
fold decrease of apparent affinity against WT eIF3 [6]: 2 fold

Substance: initiator tRNAiMet
Kd [7, 22]: 42.3 nM
Kd ([8]; no mRNA, ~2 fold weaker than WT, mean of 2, column assigned from text, Met-charged): 28.1 nM
Kd [9, 22]: 47.8 nM

Substance: mid-AUG model mRNA
binding signal [10]: 88.2 % recruited
binding signal [11]: 96.8 % recruited
binding signal [12]: 97.1 % recruited
binding signal [13]: 93.3 % recruited
binding signal [14]: 93.8 % recruited
binding signal [15]: 95.9 % recruited
binding signal ([7]; measurement 1, m7G cap): 94.6 % recruited
binding signal ([8]; measurement 1, m7G cap): 77.8 % recruited
binding signal [16]: 96.1 % recruited
binding signal [17]: 97.7 % recruited
binding signal [18]: 96.9 % recruited
binding signal [19]: 98.3 % recruited
binding signal [20]: 97.7 % recruited
binding signal [21]: 98.5 % recruited
binding signal ([9]; measurement 1, m7G cap): 81.6 % recruited

Other lines, results leading:

Kd [1]: 126 nM
Substance: eIF3 variant R731I (eIF3a/Tif32 CTD) (from UniProt P38249 1-964; P06103 1-763; P32497 1-812; P40217 1-347; Q04067 1-274) (complex)

Kd [2]: 41 nM and 52 nM
Kd [1]: 27 nM and 21 nM
Substance: eIF3 variant ∆60 (eIF3c/Nip1 CTD) (from UniProt P38249 1-964; P06103 1-763; P32497 1-752; P40217 1-347; Q04067 1-274) (complex)

Kd [2]: 106 nM and 111 nM
Kd [1]: 87 nM and 98 nM
Substance: eIF3a/b/c sub-complex lacking the i and g subunits (from UniProt P38249 1-964; P06103 1-763; P32497 1-812)

— PMC5153249
